In paper PMC13627713:

Biological target: Smc5/6 hexamer (wild type) (Saccharomyces cerevisiae W303, UniProt Q08204;Q12749;Q07913;P38632;Q05541;P43124 1-1093;1-1114;1-336;1-267;1-303;1-402)
Experiment: EMSA

B1: DB20 20-bp DNA (dsDNA)
DNA 1: TATTTACTTTATGTTCATTT
DNA 2: AAATGAACATAAAGTAAATA
B1: binds.
